Results from publication doi:10.1101/2022.05.18.492403 (bioRxiv, 2022).

B1: C-terminal StrepII-tagged ScSbtB C105A+C110A variant (natural protein, Synechocystis sp. PCC 6803)
chain: MAKPANKLVIVTEKILLKKIAKIIDESGAKGYTVMNTGGKGSRNVRSSGQPNTSDIEANIKFEILTETREMAEEIADRVAVKYFNDYAGIIYICSAEVLYGHTFAGPEGA
B2: truncated C-terminal StrepII-tagged ScSbtB protein (SbtB-Δ104) (domain or fragment, Synechocystis sp. PCC 6803, UniProt P73954 1-104, looked up)
chain: MAKPANKLVIVTEKILLKKIAKIIDESGAKGYTVMNTGGKGSRNVRSSGQPNTSDIEANIKFEILTETREMAEEIADRVAVKYFNDYAGIIYICSAEVLYGHTF

Molecular target: the molecule itself
Assay: crystal structure

Row | Protein | stoichiometry N
1 | B1 | 3
2 | B2 | 3
